From patent US20230122991A1, “GROWTH FACTOR FORMULATION FOR CONDITION ASSOCIATED WITH OTIC EVENT” (OTONOMY, INC., priority 2020, published 2023)

Assays:
noise exposed adult rats = assay: Noise-induced hearing loss/synaptopathy, ABR wave I amplitude (Example A1); type: in vivo, rat; conditions: sustained release formulation, 0.005% BDNF in Poloxamer 407, single unilateral intratympanic administration 24 hrs after noise; compared to vehicle treatment; FIG. 3A
Experimental: Male rats (Charles River) approximately 10-11 months of age served as subjects (N=6 per group). Prior to any procedures, animals were anesthetized using a combination of xylazine (10 mg/kg) and ketamine (90 mg/kg) for up to one hour via the intraperitoneal route. If needed, an intraoperative booster was administered intraperitoneally representing one-tenth of the original dose.
Noise exposure—Anesthetized animals (4 at a time) were placed in an enclosure and exposed to noise. The characteristics of the acoustic trauma were as follows: a single period of 1 h, sound pressure level of 105 dB SPL with a narrow band pass of 8-16 kHz. […]
Auditory Brainstem Response (ABR) assessment (wave 1)—During the procedure, additional anesthetic (xylazine and ketamine) was administered if needed to maintain the depth of anesthesia sufficient to insure immobilization and relaxation. ABRs were recorded in an electrically and acoustically shielded chamber, one ear at a time. […] Acoustic calibration was performed with TDT software (SigCal) and thresholds were expressed as dB SPL in conditions identical to that of threshold recordings in animals. […] Wave 1 was quantified by averaging the wave 1 amplitude from intensities ranging between 60-80 dB SPL.
Animals were exposed to noise on Day 0. […] ABR threshold and ABR wave I amplitude were measured weekly in live animals for up to 4 weeks. […]

[1] = tested on: rats after acoustic trauma; assay: Noise-induced cochlear synaptopathy, IHC synaptic puncta counts at various BDNF concentrations (Example K); type: in vivo, rat; conditions: at all three BDNF concentrations (0.005%, 0.05%, 0.5% BDNF in P407); Day 28; FIG. 19
Experimental: (§1) Animals: Male Sprague-Dawley rats (5-6 months of age) were used for efficacy studies and females (2-3 months) were used for pharmacokinetic studies.
Formulations: Human recombinant BDNF was suspended in the thermoreversible polymer Poloxamer 407 (16%) to reach a range of BDNF concentrations (0.005%, 0.05%, and 0.5% by weight).
(§2) Intratympanic (IT) injection: Formulations were administered under anesthesia as a single IT injection (20 μl) through the tympanic membrane into the middle ear, targeting the round window membrane (RWM).
(§3) Noise-induced cochlear synaptopathy: Rats received a single acoustic trauma (105 dB SPL, 8-16 kHz, 1 h) under anesthesia. 24 hours later (Day 1) animals received a single bilateral IT injection of the treatment regimens. Auditory function (ABR and ABR wave 1 amplitude) was monitored at day 1 and then every 7 days for 28 days, as illustrated in FIG. 16. At termination (Day 28), cochleae were collected and assessed for evidence of cochlear synaptopathy (IHC synaptic puncta counts).
Immunohistochemistry: Dissected cochleae were immunostained with antibodies against presynaptic (CtBP2) and postsynaptic (GluR2) proteins and MyosinVIIa to label hair cells. Cochleae were then frequency mapped and high-magnification images were obtained with a Zeiss LSM-880 confocal microscope and imaged at an interval of 0.35 μm.

[2] = tested on: adult male rats bilaterally exposed to noise; assay: Noise-induced cochlear synaptopathy, ABR thresholds and wave I amplitude (Example G); type: in vivo, rat
Experimental: as §1
Formulations: Human recombinant BDNF was suspended in the thermoreversible polymer Poloxamer 407 (16%) to reach a range of BDNF concentrations.
as §2
as §3, with “Rats (n=44 per treatment group)” for “Rats”, “days.” for “days, as illustrated in FIG. 16.”
Intratympanic BDNF improves Auditory Brainstem Response (ABR) thresholds and wave I amplitudes in adult rats. The Auditory Brainstem Response (ABR) is an objective test that measures hearing sensitivity and can identify abnormalities in the peripheral auditory system and the auditory pathway up through the brainstem. […]

SGNs = assay: SGN complexity, dissociated SGNs (Example D); type: cell-based, rat; conditions: differences upon treatment, FIG. 7D
Description: SGNs were immunostained, imaged, and batch analyzed with PerkinElmer Harmony 4.6 software. Changes in the complexities of SGNs upon treatment with various agents were examined. […] All of the images in a single well were stitched together and analyzed. SGN somas are shown in the upper right panel and SGN neurites are shown in the lower left panel. As shown in the lower right panel, each neurite tree is assigned to a single cell for analysis. Depending on the stitching, occasionally neurites will not meet the criteria due to gaps that exceed a user-defined threshold.

B1: brain-derived neurotrophic factor (protein, UniProt P23560 129-247, looked up)
Neurotrophic factor BDNF: HSDPARRGELSVCDSISEWVTAADKKTAVDMSGGTVTVLEKVPVSKGQLKQYFYETKCNPMGYTKEGCRGIDKRHWNSQCRTTQSYVRALTMDSKKRIGWRFIRIDTSCVCTLTIKRGR
modifications: Neurotrophic factor BDNF in 16% poloxamer 407 gel
notes: Human recombinant BDNF
hearing function (wave I amplitude) (noise exposed adult rats): improved
synaptic puncta (co-expression of CtBp2 and GluR2) per inner hair cell [1]: increased
ABR threshold shift ([2]; 0.05 mg/ml BDNF in P407, intratympanic injection 24 hours after noise exposure, ABR at days 1, 7, 14, and 28, vs P407 vehicle alone, FIG. 12A): more rapid recovery of initial threshold shifts and overall reduced levels of hearing loss
ABR wave I amplitudes ([2]; BDNF in P407 vs vehicle treatment following noise exposure, across many frequencies, FIG. 12C): Significant improvements
total neurite length, total number of extremities, segments, and nodes per cell (SGNs): not statistically significant
